Assay results: patent publication US20040265808A1, “Genes involved in osteogenesis, and methods of use” (priority 2001, published 2004)

Legend:
Format in all cases: cell-based, mouse
[1] = tested on: pluripotent cells C3H10T1/2, ST2 and C2C12; experiment: Wnt-frizzled pathway and osteoblast differentiation, alkaline phosphatase measurement in pluripotent cells; details: for effect on the activity of Wnt proteins (Wnt1, Wnt2, Wnt3a), alkaline phosphatase measurement: C3H10T1/2; for effect on BMP-2: C3H10T1/2 cells
Description: FIGS. 1 to 7 represents the relationship between members of the Wnt-frizzled family, with bone formation, by measurement of alkaline phosphatase (ALP).
The inventors have also tested the capacity of Fz1 to interact with Wnt proteins and thus affect osteoblast differentiation. Overexpression of Fz1 decreased the activity of Wnt1, Wnt2 and Wnt3a in pluripotent cells C3H10T1/2 as determined by the alkaline phosphatase measurement (FIG. 4). However the expression of Fz3 or Fz4 increased the activity of Wnt proteins in the differentiation process (FIG. 6). […] This indicate that Frizzled may negatively or positively cooperate with their ligand proteins, Wnt, in these bone-related cells.
(§1) Mouse cell lines representing different stages of osteoblastic differentiation, C2C12, C2H10T1/2, ST2 and MC3T3-E1, were grown in the presence of agents capable of the induction of osteoblastic differentiation in vitro such as BMP2 and Sonic Hedgehog or in the presence of TGF beta (negative control) or with serum alone. Primary cells derived from mouse calvaria were also cultured for 0, 2, 7 14 and 21 days and RNA prepared for each time point. For example, C3H10T ½ and C2C12 can be obtained from the ATCC (Manassas, Va., USA) under the collection numbers CCL-226 and CRL-1772, respectively.

C3H10T1/2 cells = experiment: Transient over-expression of candidate genes, cooperation with BMP2 by measurement of alkaline phosphatase; parameters: key: +: positive or negative cooperation with BMP2; −: positive or negative cooperation with BMP2; details: for Validation in vitro (coop over BMP2) C3H10T1/2: alkaline phosphatase
Procedure: as §1
(§2) The candidates genes are cloned in expression vectors and their ability to express a protein of the expected size verified by COS cells transient transfection. The genes are then transfected in C3H10T1/2 cells and/or C2C12 cells (transient over-expression) and positive or negative cooperation with BMP2 is evaluated by the measurement of alkaline phosphatase (enzymatic assay and TaqMan) at 48 hours. Controls of positive cooperation, recombinant Sonic Hedgehog, or negative cooperation, recombinant Noggin, are included in each test.

C2C12 cells = experiment: as above; parameters: key: +: positive or negative cooperation with BMP2; −: positive or negative cooperation with BMP2
Procedure: as §1, §2

## Fz3: frizzled receptor expressed in C3H10T1/2 cells
[1]; overexpression
  effect on the activity of Wnt proteins (Wnt1, Wnt2, Wnt3a), alkaline phosphatase measurement: increased

## Fz4: frizzled receptor expressed in C3H10T1/2 cells
[1]; overexpression
  effect on the activity of Wnt proteins (Wnt1, Wnt2, Wnt3a), alkaline phosphatase measurement: increased

## SEQ ID No 37: candidate gene, receptor tyrosine kinase Ufo/Ax1, overexpressed in cells
[1]; overexpressed in C2C12 or C3H10T1/2 cells
  BMP2 induced Alkaline phosphatase activity: repress

## TCF3: TCF protein, transcription factor of the Wnt pathway
[1]
  effect on BMP-2: inhibitors

## TCF4: TCF protein, transcription factor of the Wnt pathway
[1]
  effect on BMP-2: inhibitors

## Wnt3a
[1]; overexpression, C3H10T1/2, ST2 and C2C12
  production of alkaline phosphatase (osteoblast differentiation): increases

B1: 63 (nucleic acid, listed as Mus musculus)
chain: CGGAATTCGCCATGTCAACAGCAGGAGTTGCTGCTCAGGATATTCGAGTCCCATTAAAAACTGGATTTCTCCATAATGGTCAGGCCTTGGGGAATATGAAGTCCTGCTGGGGCAGTCACAGTGAGTTTGAAAATAACTTTTTAAATATTGATCCAATAACCATGGCCTACAATCTGAACTCCCCTGCTCAGGAGCACCTAACAACTGTTGGATGTGCTGCTCGGTCTGCTCCAGGGAGCGGCCACTTCTTTGCAGAGTGTGGTCCATCTCCAAGGTCAAGCTTGCCCCCTCTTGTTATCTCACCAAGTGAAAGCTCGGGACAGCGTGAAGAGGATCAAGTTATGTGTGGTTTTAAGAAACTCTCAGTGAATGGGGTCTGCACTTCCACACCTCCACTTACACCCATTAAAAGCTGCCCTTCCCCTTTCCCCTGTGCGGCTCTGTGTGATCGGGGTTCTCGGCCGCTCCCGCCACTGCCCATCTCTGAAGACCTATGTGTGGATGAGGCCGACAGTGAGGTAGAGCTTCTAACCACCAGCTCAGACACAGACTTGCTTTTAGAAGACTCTGCGCCTTCAGATTTCAAATACGATGCTCCTGGCAGGCGCAGCTTCCGTGGGTGCGGCCAGATCAACTATGCATATTTTGACAGCCCAACTGTTTCTGTGGCAGATCTTAGCTGTGCATCTGACCAGAACAGAGTTGTTCCAGACCCAAACCCTCCCCCACCTCAAAGCCATCGCAGATTAAGGAGGTCTCACTCAGGACCAGCTGGGTCATTTAACAAGCCAGCCATTCGGATATCTAGCTGCACACACAGAGCTTCTCCTAGCTCTGATGAAGACAAGCCTGAGGTCCCTCCCAGGGTTCCTATACCTCCTAGGCCAGCAAAGCCAGACTATAGACGGTGGTCAGCAGAAGTGACCTCCAACACCTACAGTGATGAAGATAGGCCTCCCAAAGTCCCCCCGAGAGAACCTTTGTCTCGGAGTAACTCCCGTACCCCAAGTCCTAAAAGCCTTCCGTCTTACCTCAATGGGGTCATGCCCCCAACACAGAGCTTCGCTCCTGACCCCAAGTATGTCAGCAGCAAAGCCCTGCAGAGACAGAGCAGCGAAGGATCTGCCAACAAGGTTCCTTGCATCCTGCCCATTATTGAAAATGGGAAGAAGGTTAGCTCAACGCATTATTACTTACTACCTGAGAGGCCACCGTACCTGGACAAATATGAAAAGTATTTTAAGGAAGCAGAAGAAACAAACCCAAGCACCCAAATTCAGCCATTACCTGCTGCCTGTGGTATGGCCTCTGCCACAGAAAAGCTGGCCTCCAGAATGAAAATAGATATGGGTAGCCACGGGAAGCGCAAACACTTATCCTACGTGGTTTCTCCAGCGGCCGCTT
C3H10T1/2 cells
  Validation in vitro (coop over BMP2) C3H10T1/2: −
C2C12 cells
  Validation in vitro (coop over BMP2) C2C12: −

B2: 11 (nucleic acid, listed as Mus musculus)
chain: AATCTAGAATGCAGTGGGCCTCCGTCCTGCTGCTGGCTGGGCTCTGCTCACTTTCCCAGGGCCAGTATGATGAAGACTCTCACTGGTGGATCCAATACCTCCGAAACCAGCAGTCCACCTACTACGACCCCTATGACCCTTACCCCTATGAGCCCTCTGAGCCTTACCCCTATGGAGTGGAAGAAGGCCCAGCCTATGCCTATGGTGCACCACCTCCACCAGAGCCCCGTGATTGTCCCCAAGAATGCGACTGTCCCCCCAACTTCCCCACAGCCATGTACTGTGACAACCGCAACCTCAAGTACCTGCCTTTTGTGCCCTCCCGCATGAAGTACGTCTACTTCCAGAACAACCAGATCTCTGCCATCCAGGAAGGTGTCTTTGACAATGCCACTGGGCTCCTCTGGGTCGCTCTACATGGCAACCAGATTACCAGTGACAAGGTAGGCAGGAAAGTCTTCTCCAAGCTGAGGCACTTGGAGAGGCTGTACTTGGACCACAACAACCTGACCCGGATGCCCGGCCCGCTGCCCCGATCCCTGAGAGAGCTCCACCTGGACCACAACCAGATCTCACGGGTCCCCAACAATGCTTTGGAGGGCCTGGAGAACCTCACGGCCTTATATCTCCACCACAATGAGATCCAGGAAGTGGGGAGTTCCATGAGAGGCCTCCGGTCCCTGATCCTACTAGACCTGAGTTATAACCACCTTCGGAGGGTACCCGACGGTCTGCCCTCAGCCCTGGAGCAGCTGTACCTAGAACACAACAATGTCTACACCGTCCCTGACAGCTACTTCCGGGGGTCACCCAAGCTGCTGTACGTCCGGTTGTCTCACAACAGTCTCACTAACAACGGCCTTGCTACCAACACCTTCAACTCCAGCAGCCTTCTTGAGCTAGACTTGTCTTACAATCAGCTGCAGAAGATCCCTCCTGTCAACACCAACCTGGAGAATCTTTACCTCCAGGGCAACAGGATCAATGAGTTCTCCATCAGCAGCTTCTGCACGGTGGTGGACGTCATGAACTTCTCCAAGCTGCAGGTGCTACGCCTGGATGGGAACGAGATCAAGCGCAGCGCAATGCCGGTGGACGCCCCACTCTGCCTGCGCCTCGCCAACCTCATCGAGATCACTAGTAA
C3H10T1/2 cells
  Validation in vitro (coop over BMP2) C3H10T1/2: −
C3H10T1/2 cells; alkaline phosphatase at 48 hours
  Validation in C2H10T1/2 (coop over BMP2): − coop over BMP2
C2C12 cells
  Validation in vitro (coop over BMP2) C2C12: −

B3: 42 (nucleic acid, listed as Mus musculus)
chain: CGATCGATATGGCAGACACGTTTTCGCTTAACGATGCCTTAGCTGGCTCTGGAAACCCAAACCCTCAAGGATATCCGGGTGCATGGGGGAACCAGCCTGGGGCAGGGGGCTACCCAGGGGCTGCCTATCCTGGGGCCTATCCAGGACAGGCTCCTCCAGGGGCCTACCCAGGACAGGCTCCTCCAGGGGCCTATCCAGGACAGGCTCCTCCTAGTGCCTACCCCGGCCCAACTGCCCCTGGAGCTTATCCTGGCCCAACTGCCCCTGGAGCTTATCCTGGCTCAACTGCCCCTGGAGCCTTCCCAGGGCAACCTGGGGCACCTGGGGCCTACCCCAGTGCTCCTGGAGGCTATCCTGCTGCTGGCCCTTATGGTGTCCCCGCTGGACCACTGACGGTGCCCTATGACCTGCCCTTGCCTGGAGGAGTCATGCCCCGCATGCTGATCACAATCATGGGCACAGTGAAACCCAACGCAAACAGGATTGTTCTAGATTTCAGGAGAGGGAATGATGTTGCCTTCCACTTTAACCCCCGCTTCAATGAGAACAACAGAAGAGTCATTGTGTGTAACACGAAGCAGGACAATAACTGGGGAAAGGAAGAAAGACAGTCAGCCTTCCCCTTTGAGAGTGGAAAACCATTCAAAATACAAGTCCTGGTTGAAGCTGACCACTTCAAGGTTGCGGTCAACGATGCTCACCTACTGCAGTACAACCATCGGATGAAGAACCTCCGGGAAATCAGCCAACTGGGGATCAGTGGTGACATAACCCTCACCAGCGCTAACCACGCCATGATCGCGGCCGCTT
C3H10T1/2 cells
  Validation in vitro (coop over BMP2) C3H10T1/2: −
C2C12 cells
  Validation in vitro (coop over BMP2) C2C12: −

B4: 55 (nucleic acid, listed as Mus musculus)
chain: CGATCGATATGTCTTCAGGAAATGCAAAAATTGGGTATCCTGCTCCCAACTTCAAAGCTACAGCTGTTATGCCAGATGGACAATTCAAAGATATCAGCCTAAGTGAATACAAAGGAAAATATGTTGTGTTCTTCTTTTACCCTCTTGACTTTACTTTTGTGTGTCCCACGGAGATCATTGCTTTCAGTGATAGAGCCGATGAATTTAAGAAACTCAACTGCCAAGTGATTGGCGCTTCTGTGGATTCTCACTTCTGTCATCTGGCATGGATTAACACACCCAAGAAACAAGGAGGATTGGGACCCATGAACATTCCCTTAATATCAGATCCCAAGCGCACCATTGCTCAGGATTATGGAGTCTTAAAGGCTGATGAAGGTATCTCTTTCAGGGGCCTTTTTATTATTGATGATAAAGGTATCCTTCGACAGATAACAATAAACGATCTTCCCGTTGGCCGCTCTGTGGATGAGATTATACGACTAGTCCAGGCCTTCCAGTTCACTGACAAACATGGTGAAGTGTGTCCAGCTGGCTGGAAACCTGGCAGTGATACCATCAAGCCTGATGTCAATAAGAGCAAAGAGTATTTCTCTAAGCAGAAGGCGGCCGCTT
C3H10T1/2 cells
  Validation in vitro (coop over BMP2) C3H10T1/2: −
C2C12 cells
  Validation in vitro (coop over BMP2) C2C12: −

B5: 68 (nucleic acid, listed as Mus musculus)
chain: CGATCGATATGGTCACCCACAGCAAGTTTCCCGCCGCCGGGATGAGCCGCCCCCTGGACACCAGCCTGCGCCTCAAGACCTTCAGCTCCAAAAGCGAGTACCAGCTGGTGGTGAACGCCGTGCGCAAGCTGCAGGAGAGCGGATTCTACTGGAGCGCCGTGACCGGCGGCGAGGCGAACCTGCTGCTCAGCGCCGAGCCCGCGGGCACCTTTCTTATCCGCGACAGCTCGGACCAGCGCCACTTCTTCACGTTGAGCGTCAAGACCCAGTCGGGGACCAAGAACCTACGCATCCAGTGTGAGGGGGGCAGCTTTTCGCTGCAGAGTGACCCCCGAAGCACGCAGCCAGTTCCCCGCTTCGACTGTGTACTCAAGCTGGTGCACCACTACATGCCGCCTCCAGGGACCCCCTCCTTTTCTTTGCCACCCACGGAACCCTCGTCCGAAGTTCCGGAGCAGCCACCTGCCCAGGCACTCCCCGGGAGTACCCCCAAGAGAGCTTACTACATCTATTCTGGGGGCGAGAAGATTCCGCTGGTACTGAGCCGACCTCTCTCCTCCAACGTGGCCACCCTCCAGCATCTTTGTCGGAAGACTGTCAACGGCCACCTGGACTCCTATGAGAAAGTGACCCAGCTGCCTGGACCCATTCGGGAGTTCCTGGATCAGTATGATGCTCCACTTGCGGCCGCTT
C3H10T1/2 cells
  Validation in vitro (coop over BMP2) C3H10T1/2: −
C2C12 cells
  Validation in vitro (coop over BMP2) C2C12: −
